From the supplement of paper PMC9732359
± gives the uncertainty stated by the source.

Assay: protein stability index of a GFP-peptide fusion (yeast GPS) (PSI 1-4); higher = more stable; sorted into four equal gates, so the index is relative within each strain
In short: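 The protein stability index combines read frequencies across sorting gates, each weighted by its gate number and then summed. To obtain those frequencies, a pooled yeast library of GFP fusions to tiled 17-residue yeast protein peptides, on a plasmid also expressing Cherry, was grown to mid-log phase in leucine-free medium. The cells were sorted into four equal gates by GFP/Cherry ratio before plasmid amplification by PCR and Illumina sequencing.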

Sequence	protein stability index (doa10∆)	protein stability index (pdr5∆)	protein stability index (san1∆)	protein stability index (ubr1∆)
PSKSQTNFKEEITDASL [YML103C/NUP188]	2.93 ± 0.15	3.13 ± 0.11	3.02 ± 0.18	2.92 ± 0.18
TFDGIRMSSEEVNSLLL [GRR1]	3.03 ± 0.099	3.04 ± 0.15	3.14 ± 0.15	2.92 ± 0.074
VLRINKMLSCAGADRLQ [RPL10]	1.1 ± 0.092	1.28 ± 0.14	1.17 ± 0.21	1.11 ± 0.084
TLSNAERAKNVNGLLQV [GAL11]	3.22 ± 0.14	3.23 ± 0.1	3.08 ± 0.26	3 ± 0.098
GRYMEALALYVDAYRRL [SRP68]	1.84 ± 0.074	1.91 ± 0.11	1.85 ± 0.15	1.79 ± 0.077
VDIQIINQYQLLYNLKN [SWI1]	1.68 ± 0.031	1.54 ± 0.041	1.49 ± 0.086	1.33 ± 0.033
IRAELLNDRKVLFAAYK [RPB11]	2.18 ± 0.081	2.19 ± 0.063	2.45 ± 0.098	2.23 ± 0.061
GEGSTVNASVDVDQHGN [SWI3]		3.47 ± 0.17	2.87 ± 0.29	3.35 ± 0.19
DSNESDDDVTPSTKVAS [YLR335W/NUP2]	3.46 ± 0.16	3.13 ± 0.15	3.26 ± 0.088	3.54 ± 0.12
KVEIKKVNSRDDSFFNE [PRP28]	3.16 ± 0.082	3.31 ± 0.082	2.71 ± 0.092	3.38 ± 0.12
QQTEHETEIKDLTQLLE [SMC4]	3.44 ± 0.083	3.26 ± 0.048	3.31 ± 0.045	3.34 ± 0.046
CSNNKNSIKNVPPILII [SSN2]	2.39 ± 0.16	2.28 ± 0.098	2.52 ± 0.17	1.5 ± 0.085
EDDDIRSRMLPTITLDD [SNF5]	2.46 ± 0.15	3.07 ± 0.18		3.44 ± 0.14
LQPIKGESARRFQKCFP [RPC40]		3 ± 0.25		
NSADAAYAQVEIQPRAN [FAS2]	2.82 ± 0.054	2.76 ± 0.065	2.21 ± 0.061	2.79 ± 0.048
KLTAERANLRKYREGQV [POP1]	2.91 ± 0.058	3.02 ± 0.07	2.8 ± 0.073	3.01 ± 0.055
AQQAQQAQQAQQAQARL [SNF2]	3.08 ± 0.051	3.24 ± 0.048	3.13 ± 0.035	3.2 ± 0.045
ASVEIVFHDPDHSMILP [SMC3]	2.26 ± 0.11	2.54 ± 0.12	2.98 ± 0.15	2.65 ± 0.079
AGDIQLQYGWKVERHIM [RPO21]	1.18 ± 0.067	1.24 ± 0.12	1.36 ± 0.19	1.24 ± 0.098
FSKGDADVLVDRVVSSD [SRP72]	3.28 ± 0.091	3.2 ± 0.098	3.02 ± 0.098	3.04 ± 0.081
KVESQETLNDTIERSLI [YCS4]	2.73 ± 0.092	2.99 ± 0.071	2.96 ± 0.072	2.97 ± 0.057
CKKKEMSQYQSTMKENK [YIL149C/MLP2]	2.49 ± 0.088	2.76 ± 0.073	1.42 ± 0.23	2.55 ± 0.071
QHYKNNSISSQPASYHS [SSN2]	2.56 ± 0.058	3.03 ± 0.067	3.05 ± 0.065	2.78 ± 0.057
LTNILRMMGCVKKQKSA [FAS2]	1.91 ± 0.068	2.1 ± 0.078	1.81 ± 0.12	1.35 ± 0.066
LLGTMAGGAADCQFWET [PRE2]	1.61 ± 0.069	2.6 ± 0.078	2.22 ± 0.084	2.65 ± 0.078
ALLRVTKSKNKTLIGLQ [POP4]	2.71 ± 0.055	2.18 ± 0.053	2.27 ± 0.052	2.47 ± 0.049
SQLKKSKAQQKTAEQVA [RPL7A]	2.7 ± 0.071	2.79 ± 0.087	2.58 ± 0.1	2.94 ± 0.052

Sequence	protein stability index (doa10∆)	protein stability index (pdr5∆)	protein stability index (san1∆)	protein stability index (ubr1∆)
GGQTKPVFHKKAKTTKK [RPL42A]	2.72 ± 0.056	2.94 ± 0.076	2.73 ± 0.064	2.89 ± 0.045
GELDVLQIESVTKETVH [PRP8]	2.54 ± 0.054	2.73 ± 0.066	2.55 ± 0.07	2.76 ± 0.064
DFDNIEFKKIPRVKGFK [SEC65]	2.84 ± 0.14	3.11 ± 0.13	2.82 ± 0.078	3.13 ± 0.088
EANFDLINIDTSIANAF [RPC40]	2.78 ± 0.049	3.27 ± 0.057	3 ± 0.05	3.07 ± 0.043
NYLLKRNEDARRNLRYG [RPO31]	3.35 ± 0.1	3.41 ± 0.094	3.51 ± 0.12	3.56 ± 0.056
QGIIYAKVNRPAKIVNF [RPN5]	2.61 ± 0.13	2.72 ± 0.15	2.37 ± 0.12	2.4 ± 0.16
SNDLDKFFQKKIHLYEK [YGL172W/NUP49]	2.21 ± 0.057	2.22 ± 0.067	1.96 ± 0.061	2.32 ± 0.052
YAIIINYTKDNEYYPMC [YCS4]	1.36 ± 0.071	1.44 ± 0.092	1.61 ± 0.13	1.51 ± 0.082
MKYLAAYLLLVQGGNAA [RPP2B]	1.53 ± 0.051	1.78 ± 0.038	1.78 ± 0.069	2 ± 0.065
RNQILVSITDAPKIHIL [YMR129W/POM152]	1.43 ± 0.041	1.35 ± 0.036	1.26 ± 0.057	1.61 ± 0.038
ICMESLFLEPSWSSSAA [PCI8]		2.86 ± 0.12	2.63 ± 0.15	3.17 ± 0.11
LLLKDQQTAKKLIPKLY [ECM29]	2.1 ± 0.054	2.46 ± 0.061	2.32 ± 0.096	1.66 ± 0.053
SESDLDEDKNFPRSRSR [ESC2]	2.98 ± 0.087	3.24 ± 0.08	3.32 ± 0.059	3.28 ± 0.054
LFPIVKKHGKTDYFLPK [YJL039C/NUP192]	2.46 ± 0.2	2.66 ± 0.11	2.58 ± 0.15	2.08 ± 0.062
KEECQIEDDGIIESHLI [CSN9]	3.59 ± 0.25	3.23 ± 0.14	3.19 ± 0.084	3.02 ± 0.23
QKMAELEAARSEKQNDE [PRP8]	1.75 ± 0.11	1.76 ± 0.085	2.23 ± 0.26	1.8 ± 0.09
GGNNNNNSTGIANDNVI [SWI1]	2.87 ± 0.057	3 ± 0.053	2.94 ± 0.05	3.14 ± 0.044
NNNNNNNNSNNIMSASG [YGL172W/NUP49]	2.73 ± 0.059	2.48 ± 0.038	2.67 ± 0.077	3.1 ± 0.059
PFQVSSFVKETKLHSGD [SRB8]	2.96 ± 0.088	2.77 ± 0.082	2.8 ± 0.085	2.91 ± 0.061
LFGEKSILGKFCPIVEE [YCS4]	1.55 ± 0.041	1.74 ± 0.052	1.57 ± 0.11	1.73 ± 0.039
STSNALKVLSGDEGYNE [SNF12]	3.39 ± 0.11	3.24 ± 0.11	3.04 ± 0.059	3.5 ± 0.13
VYAFKAKNKSTRINGLN [REC8]	1.53 ± 0.1	1.65 ± 0.094	1.77 ± 0.19	1.59 ± 0.12
HVQFRLGNVDAFQLADG [PRP8]	3.28 ± 0.11	2.79 ± 0.084	2.47 ± 0.11	1.61 ± 0.046
KDLVKNNVSFNAKDIQI [FAS1]	2.46 ± 0.041	2.62 ± 0.061	2.69 ± 0.07	2.71 ± 0.043
FFLQRKLRSELGYKDTS [BRR2]	2.11 ± 0.091	1.53 ± 0.071	1.71 ± 0.12	1.35 ± 0.18
DTLDPALLRPGRLDRKV [RPT4]	3.02 ± 0.26			
SAPIYVDIEYTRGRNII [RET1]	2.42 ± 0.11	2.51 ± 0.12	2.88 ± 0.064	2.86 ± 0.1
